Source: PMC3002026 (The Journal of Cell Biology, 2010)

Target: the molecule itself
Test: AUC

B1: Mdv1 CC^231–299 (domain or fragment, yeast)
chain: GPQTLVNSLEFLNIQKNSTLSEIRDIEVEVENLRQKKEKLLGKIANIEQNQLLLEDNLKQIDDRLDFLEEY
- stoichiometry N: 1.95
